Measured values: patent publication US20220153864A1 (Pieris, published 2022)

How the values were obtained:
[1] = target: T1, human CD137 expressed on cells (Flp-In-CHO::huCD137; NFkB-luc2/CD137 Jurkat cells) (human, UniProt Q07011 24-255); test: cell-based or functional assay
[2] = target: T2, human GPC3 expressed on cells (SK-Hep1::huGPC3; HepG2, Hep3B and MKN-45 tumor cells) (human, UniProt P51654 25-554); test: flow cytometry, SK-Hep1 cells transfected with human GPC3, detection labelled anti-human IgG, GeoMean BL1-H [lower graph]
T2 construct: whole, on cells; also called GPC3-positive tumor cells; human GPC3-expressing cells
T2 sequence (P51654 25-554 limits assumed): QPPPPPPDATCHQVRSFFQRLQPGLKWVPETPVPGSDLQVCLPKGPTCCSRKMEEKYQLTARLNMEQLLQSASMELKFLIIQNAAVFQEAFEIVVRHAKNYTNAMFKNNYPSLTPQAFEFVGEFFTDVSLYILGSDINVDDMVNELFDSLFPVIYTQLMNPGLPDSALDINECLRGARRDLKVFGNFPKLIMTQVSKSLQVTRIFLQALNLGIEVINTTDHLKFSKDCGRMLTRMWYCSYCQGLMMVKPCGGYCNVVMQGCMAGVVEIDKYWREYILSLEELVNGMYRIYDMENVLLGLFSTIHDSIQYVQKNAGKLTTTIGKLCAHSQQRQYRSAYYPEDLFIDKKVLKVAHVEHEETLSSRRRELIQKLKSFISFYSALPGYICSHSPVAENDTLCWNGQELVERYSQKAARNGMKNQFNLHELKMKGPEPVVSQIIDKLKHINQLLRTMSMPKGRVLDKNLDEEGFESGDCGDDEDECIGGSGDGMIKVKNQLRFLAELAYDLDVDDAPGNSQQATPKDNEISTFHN
Protocol: (§1) For flow cytometric analysis, respective cell lines were incubated with an exemplary fusion protein (SEQ ID NOs: 87 and 82), the GPC3 antibody or the CD137 specific lipocalin mutein (Fc fusion) as included in the fusion protein (SEQ ID NOs: 81 and 82 and SEQ ID NO: 98, respectively), a reference CD137 antibody SEQ ID NOs: 26 and 27, or an isotype control (SEQ ID NOs: 24 and 25) and detected using a fluorescently labeled anti-human IgG antibody in FACS analysis as described in the following:
(§2) 5×10⁴ cells per well were incubated for 1 h in ice-cold PBS containing 5% fetal calf serum (PBS-FCS). A dilution series of the testing molecule were added to the cells and incubated for 1 h on ice. Cells were washed twice with PBS and then incubated with a goat anti-hlgG Alexa647-labeled antibody or goat anti-hlgG Alexa488-labeled antibody for 30 min on ice. Cells were subsequently washed and analyzed using iQue Flow cytometer (Intellicyte Screener). Mean geometric fluorescent signals were plotted and fitted with Graphpad software. The geometric means of the fluorescence intensity were used to calculate EC₅₀ values using a four-parameter logistic regression with bottom fixed to background.

[3] = target: T1, human CD137 expressed on cells …; test: flow cytometry on Flp-In-CHO::huCD137 cells, anti-human IgG detection
Protocol: as §1, §2

[4] = target: T2, human GPC3 expressed on cells …; test: flow cytometry on SK-Hep1::huGPC3 cells, anti-human IgG detection
Protocol: as §1, §2

[5] = target: T2, human GPC3 expressed on cells …; test: flow cytometry, SK-Hep1 cells transfected with human GPC3, detection labelled anti-human IgG, GeoMean RL1-H [upper graph]
Protocol: as §1, §2

[6] = target: T2, human GPC3 expressed on cells …; test: flow cytometry on HepG2 tumor cells (GPC3 high)
Protocol: as §2
(§3) For flow cytometric analysis, tumor cell lines with different GPC3 expression levels (high to moderate expression: HepG2>Hep3B>MKN-45) and GPC3 negative cell line NCI-N87 were incubated with an exemplary fusion protein SEQ ID NOs: 87 and 82, the GPC3 antibody or the CD137 specific lipocalin mutein (Fc fusion) as included in the fusion protein (SEQ ID NOs: 81 and 82 and SEQ ID NO: 98, respectively), a reference CD137 antibody SEQ ID NOs: 26 and 27, or an isotype control (SEQ ID NO: 24 and 25), and detected using a fluorescently labeled anti-human IgG antibody as described in Example 6.

[7] = target: T3, huCD137-His (recombinant human CD137 with C-terminal polyhistidine tag, R&D Systems) (human, UniProt Q07011 24-186); test: ELISA, huCD137-His coated, binder titrated to 100 nM, detection anti-NGAL-HRP per paragraph 342 (the antibody itself carries no lipocalin mutein) [upper graph]
T3 construct: also called biotinylated huCD137-His; not shown: C-terminal polyhistidine tag

[8] = target: T2, human GPC3 expressed on cells …; test: flow cytometry on MKN-45 tumor cells (GPC3 moderate)
Protocol: as §2, §3

[9] = target: T4, recombinant cynomolgus GPC3 (cyGPC3) (R&D Systems) (cynomolgus, UniProt A0A2K5VK50 24-558); test: ELISA, cyGPC3 coated
Protocol: (§4) Recombinant huGPC3 (R&D Systems) at the concentration of 1 μg/mL in PBS was coated overnight on microtiter plates at 4° C. After five washes with 100 μL PBS-0.05% T (PBS supplemented with 0.05% (v/v) Tween 20), the plates were blocked with 2% BSA (w/v) in PBS-0.1% T (PBS-0.1% T-2% BSA) for 1 h at room temperature. After washing with 100 μL PBS-0.05% T (PBS supplemented with 0.05% (v/v) Tween 20) five times, exemplary fusion proteins (SEQ ID NOs: 87 and […] and CD137Ac1-Fusion 1 to 7) or the GPC3 antibody as include in the fusion proteins (SEQ ID NOs: 81 and 82) at different concentrations were added to the wells and incubated for 1 h at room temperature, followed by another wash step. Bound molecules under study were detected by incubation with 1:5000 diluted anti-human IgG Fc-HRP (Jackson Laboratory) in PBS-0.1% T-2% BSA. After an additional wash step, fluorogenic HRP substrate (QuantaBlu, Thermo) was added to each well and the fluorescence intensity was detected using a fluorescence microplate reader.
The same ELISA setup was also employed to determine the binding potency of fusion proteins to cynomolgus GPC3 and huCD137, where recombinant cyGPC3 (R&D Systems) or huCD137-His (recombinant human CD137 with C-terminal polyhistidine tag, R&D Systems) was instead coated on a microtiter plate. The testing agents were similarly titrated and bound agents were detected via anti-NGAL-HRP. […]

[10] = target: T5, recombinant human GPC3 (huGPC3) (R&D Systems) (human, UniProt P51654 25-559); test: SPR (Biacore T200), binder captured by anti-human IgG Fc, huGPC3 as analyte, 1:1 model
T5 construct: also called biotinylated huGPC3
T5 sequence (P51654 25-559 limits assumed): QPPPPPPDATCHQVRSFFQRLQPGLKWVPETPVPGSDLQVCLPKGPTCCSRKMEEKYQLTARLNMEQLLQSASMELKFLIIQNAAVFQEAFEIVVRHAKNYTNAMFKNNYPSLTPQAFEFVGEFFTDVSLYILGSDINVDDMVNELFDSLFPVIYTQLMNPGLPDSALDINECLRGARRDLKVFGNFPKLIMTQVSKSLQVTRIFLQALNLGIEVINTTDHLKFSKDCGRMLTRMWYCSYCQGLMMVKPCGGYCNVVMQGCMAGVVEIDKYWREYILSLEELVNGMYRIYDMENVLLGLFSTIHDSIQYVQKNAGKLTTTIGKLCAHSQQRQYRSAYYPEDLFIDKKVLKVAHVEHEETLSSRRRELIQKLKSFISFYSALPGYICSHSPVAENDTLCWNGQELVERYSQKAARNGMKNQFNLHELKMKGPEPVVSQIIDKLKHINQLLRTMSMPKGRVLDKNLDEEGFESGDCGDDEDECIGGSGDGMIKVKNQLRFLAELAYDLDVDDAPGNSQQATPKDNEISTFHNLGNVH
Protocol: (§5) The anti-human IgG Fc antibody (GE Healthcare) was immobilized on a CM5 sensor chip using standard amine chemistry: the carboxyl groups on the chip were activated using 1-ethyl-3-(3-dimethylaminopropyl)-carbodiimide (EDC) and N-hydroxysuccinimide (NHS). Subsequently, anti-human IgG Fc antibody solution (GE Healthcare) at a concentration of 25 μg/mL in 10 mM sodium acetate (pH 5.0) was applied at a flow rate of 5 μL/min until an immobilization level of 6000-10000 resonance units (RU) was achieved. Residual non-reacted NHS-esters were blocked by passing a solution of 1M ethanolamine across the surface. The reference channel was treated in an analogous manner. Subsequently, testing fusion proteins (SEQ ID NOs: 87 and 82 and CD137Ac1-Fusion 1) or the GPC3 antibody as included in the fusion protein (SEQ ID NOs: 81 and 82) at 0.2 μg/ml in HBS-EP+ buffer was captured by the anti-human IgG-Fc antibody at the chip surface for 180 s at a flow rate of 10 μL/min. After each capture step, the needle was washed.
(§6) The binding assay was carried out with a contact time of 180 s, a dissociation time of 900 s, and a flow rate of 30 μL/min. After each injection, the needle was cleaned with 40 mM NaOH+20% isopropanol. All measurements were performed at 25° C. […] Prior to the protein measurements, three startup cycles were performed for conditioning purposes. Data were evaluated with Biacore T200 Evaluation software (v2.0). Double referencing was used and the 1:1 binding model was used to fit the raw data.

[11] = target: T1, human CD137 expressed on cells …; test: flow cytometry, CHO cells transfected with human CD137, detection labelled anti-human IgG, GeoMean RL1-H [upper graph]
Protocol: as §1, §2

[12] = target: T4, recombinant cynomolgus GPC3 (cyGPC3) …; test: SPR (Biacore T200), binder captured by anti-human IgG Fc, cyGPC3 as analyte, 1:1 model
Protocol: as §5, §6

[13] = target: T2, human GPC3 expressed on cells …; test: flow cytometry on Hep3B tumor cells (GPC3 positive)
Protocol: as §2, §3

[14] = target: T5, recombinant human GPC3 (huGPC3) (R&D …); test: ELISA, huGPC3 coated, detection anti-human IgG Fc-HRP
Protocol: as §4
Exemplary results are depicted in FIG. 2A-2D, together with the fit curves resulting from a 1:1 binding sigmoidal fit, where the EC₅₀ value and the maximum signal were free parameters, and the slope was fixed to unity.

T1 sequence (Q07011 24-255): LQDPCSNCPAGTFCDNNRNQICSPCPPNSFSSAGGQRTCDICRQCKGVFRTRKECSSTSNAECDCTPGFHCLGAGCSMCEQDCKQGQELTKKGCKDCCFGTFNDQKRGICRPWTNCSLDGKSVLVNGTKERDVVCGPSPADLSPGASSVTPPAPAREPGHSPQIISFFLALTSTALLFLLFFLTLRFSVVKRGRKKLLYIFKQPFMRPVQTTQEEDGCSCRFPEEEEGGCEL

B1: reference CD137 antibody (SEQ ID NOs: 26 and 27) (antibody, human IgG4 S228P, kappa, V domains shown)
VH: QVQLQQWGAGLLKPSETLSLTCAVYGGSFSGYYWSWIRQSPEKGLEWIGEINHGGYVTYNPSLESRVTISVDTSKNQFSLKLSSVTAADTAVYYCARDYGPGNYDWYFDLWGRGTLVTVSS
VL: EIVLTQSPATLSLSPGERATLSCRASQSVSSYLAWYQQKPGQAPRLLIYDASNRATGIPARFSGSGSGTDFTLTISSLEPEDFAVYYCQQRSNWPPALTFGGGTKVEIKR
EC50, CD137 Bioassay (NFkB-luc2/CD137 Jurkat cells co-cultured with Hep3B) [1]: 1.39 nM | EC50, CD137 Bioassay (NFkB-luc2/CD137 Jurkat cells co-cultured with HepG2) [1]: 0.94 nM | EC50, CD137 Bioassay (NFkB-luc2/CD137 Jurkat cells co-cultured with MKN-45) [1]: 1.47 nM | EC50, CD137 Bioassay (NFkB-luc2/CD137 Jurkat cells co-cultured with NCI-N87) [1]: 1.67 nM | binding result [2]: no binding (tested: 500 nM) | EC50 [3]: 9.61 nM

B2: GPC3 antibody as included in the fusion protein (SEQ ID NOs: 81 and 82) (antibody, human IgG4 S228P, kappa, F234A L235A, V domains shown)
VH: QVQLVQSGAEVKKPGASVKVSCKASGYTFTDYEMHWVRQAPGQGLEWMGALDPKTGDTAYSQKFKGRVTLTADKSTSTAYMELSSLTSEDTAVYYCTRFYSYTYWGQGTLVTLVS
VL: DVVMTQSPLSLPVTPGEPASISCRSSQSLVHSNRNTYLHWYLQKPGQSPQLLIYKVSNRFSGVPDRFSGSGSGTDFTLKISRVEAEDVGVYYCSQNTHVPPTFGQGTKLEIKR
notes: also called GPC3 specific antibody
EC50 [4]: 19.9 nM | EC50 (read off the curve) [5]: ~5 nM | EC50 [6]: 16.7 nM | binding result [7]: no binding (tested: 100 nM) | EC50 [8]: 1.46 nM | EC50 [9]: 0.23 nM | Kd [10]: 0.686 nM | koff [10]: 0.000248 s⁻¹ | kon [10]: 361000 M⁻¹ s⁻¹ | binding result [11]: no binding (tested: 100 nM) | Kd [12]: 0.737 nM | koff [12]: 0.000151 s⁻¹ | kon [12]: 205000 M⁻¹ s⁻¹ | EC50 [13]: 6.35 nM | EC50 [14]: 0.13 nM
